Data taken from the nanobody polyreactivity screen of Harvey et al. (2022).

Experiment: yeast display, Sf9 membrane polyspecificity reagent, FACS + sequencing; frameworks hold sequencing errors
In short: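 A synthetic nanobody library was expressed on Saccharomyces cerevisiae BJ5465 by galactose induction for 36–48 hours. The library was stained for 1 hour at 4 °C with 10% biotinylated, detergent-solubilized Sf9 membrane reagent and enriched with streptavidin microbeads before FACS. Low and high (top ~1%) gates were set on anti-HA fluorescence for expression and streptavidin fluorescence for reagent binding, and each polyreactivity label reflects the gate of origin.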

## QVQLVESGGGLVQAGGSLRLSCAASGSTFGWYAMGWYRQAPGKERELVAAISTSGGSSYYADSVKGRFTISRDNAKNTVYLQMNSLKPEDTAVYYCNGYYRRYSITFDRYDYWGQGSQVTVSS
  polyreactivity (PSR sort gate): high polyreactivity

## QVQLVESGGGLVQAGGSLRLSCAASGSTFGWYAMGWYRQAPGKERELVATISSGGSTYYADSVKGRFTISRDNAKNTVYLQMNCLKPEDTAVYYCAADYLTPWVYWFSYGLDYWGQGTQVTVSS
  polyreactivity (PSR sort gate): low polyreactivity

## QVQLVESGGGLVQAGGSLRLSCAASGSTFGWYTMGWYRQAPGKERELVATISYGGGITNYADSVKGRFTISRDNAKNTVYLQMNSLKPEDTAVYYCAARGDGVTNPFGYWGQGTQVTVSS
  polyreactivity (PSR sort gate): high polyreactivity

## QVQLVESGGGLVQAGGSLRLSCAASGSTFGWYTMGWYRQAPGKERELVATISYGGGITNYADSVKGRFTMSRDNAKNTVDLQMNSLKPEDTAVYYWAVDNTGRSWPYDYWGQGTQVTVSS
  polyreactivity (PSR sort gate): low polyreactivity

## QVQLVESGGGLVQAGGSLRLSCAASGSTFGYAMGWNRQAPGKERELVAAINWSGSRTYYADSVKGRFTISRDNAKNTVYLQMNSLKPEDTAVYYCAVLYAGDSPDFDYWGQGSQVTVSS
  polyreactivity (PSR sort gate): high polyreactivity

## QVQLVESGGGLVQAGGSLRLSCAASGSTFGYNAMGWYRQAPGKEREFVARIRSSGSTTYADSVKGRFTISRDNAKNTVYLQMNSLKPEDTAVYYCAATFRGRYAYYYWGQGTQVTVSS
  polyreactivity (PSR sort gate): high polyreactivity

## QVQLVESGGGLVQAGGSLRLSCAASGSTFGYNAMGWYRQAPGKERELVAAIRISGGTTYYADSVKGRFTSSRDNAKNTVYLQMNSPKPSDTAVYYCAAGTAGTTGSPKFSGYGYDYWGQGTQVTVSS
  polyreactivity (PSR sort gate): low polyreactivity

## QVQLVESGGGLVQAGGSLRLSCAASGSTFGYNAMGWYRQAPGKERELVAAITRRGGITYYADSVKGRFTISRDNAKNTVYLQMNSLKPEDTAVYYCAKRLGYPGNSRNYYYWGQGTQVTVSS
  polyreactivity (PSR sort gate): high polyreactivity

## QVQLVESGGGLVQAGGSLRLSCAASGSTFGYNAMGWYRQAPGKERELVAASSRSGGRTYYADSVKGRFTISRDNAKNTVYLQMNSLKPEDTAVYYCATYYTNKVPARYYWGQGTQVTVSS
  polyreactivity (PSR sort gate): high polyreactivity

## QVQLVESGGGLVQAGGSLRLSCAASGSTFGYNAMGWYRQAPGKERELVAGISSGGSTNYADSVKGRFTISRDNAKNTVYLQMNSLKPEDTAVYYCNVDERQFSTVYPYRQFDYWGQVTQVTVSS
  polyreactivity (PSR sort gate): low polyreactivity

## QVQLVESGGGLVQAGGSLRLSCAASGSTFGYNAMGWYRQAPGKERELVAGITGSGTRTYYADSVKGRFTISRDNAKNTVYLQMNSLKPEDTAVYYCAATPTRRYYRQSAYDYWGQGTQVTVSS
  polyreactivity (PSR sort gate): high polyreactivity

## QVQLVESGGGLVQAGGSLRLSCAASGSTFGYNAMGWYRQAPGTERELVAAISSRGGSTYYADSVKGRFTISRDNAKNTVYLQMNSLKPDDTAVYYCAADPPNGAEYYWGQGTQVTGSS
  polyreactivity (PSR sort gate): high polyreactivity

## QVQLVESGGGLVQAGGSLRLSCAASGSTFGYYAMGWYRPAPGKERELVAAINVSGGRTYYADSVKGRFTISRDNAKNTVYLQMNSLKPEDTAVYYCAAQRPEYRAGRYNYWGQGTQVTVSS
  polyreactivity (PSR sort gate): high polyreactivity

## QVQLVESGGGLVQAGGSLRLSCAASGSTFGYYAMGWYRQAPGKERELVAAISWSGGSTYYADSVKGRFTISRDNAKNTVYLQMNSLKPEDTAVYYCNKVRGKTYYGEGDYWGQGTQVTVSS
  polyreactivity (PSR sort gate): high polyreactivity

## QVQLVESGGGLVQAGGSLRLSCAASGSTFGYYAMGWYRQAPGKERELVAAITSGASTNYADSVKGRFTISRDNAKNTVYLQMNSLKPEDTAVYYCAAANLQYGKDVQGDYWGQGTQVTVSS
  polyreactivity (PSR sort gate): low polyreactivity

## QVQLVESGGGLVQAGGSLRLSCAASGSTFGYYAMGWYRQAPGKERELVAAITSNDGSTNYADSVKGRFTISRDNAKKTVYLQMNSLKPEDTAVYYCNARSFVAVISSFDYWGQGTQVTVSS
  polyreactivity (PSR sort gate): low polyreactivity

## QVQLVESGGGLVQAGGSLRLSCAASGSTFGYYAMGWYRQAPGKERELVAAITWGGASTDYADSVKGRFTISRDNAKNTVYLQMNSLKPEDTAVYYCAKDNWDNPRPTSEMDYWGQGTQVTVSS
  polyreactivity (PSR sort gate): low polyreactivity

## QVQLVESGGGLVQAGGSLRLSCAASGSTFGYYAMGWYRQAPGKERELVAAITYSGGGTYYADSVKGRFTISRDNAKNTVYLQMNSLKPEDTAVYYCAATIPYSLYGYDYWGQGTQVTVSS
  polyreactivity (PSR sort gate): low polyreactivity

## QVQLVESGGGLVQAGGSLRLSCAASGSTFGYYAMGWYRQAPGKERELVASINWRGDSTYYADSVKGRFTISRDNAKNTVYLQMNSLKPEDTAVYYCNKAYRRRYVQGEYWGQGTQVSVSS
  polyreactivity (PSR sort gate): high polyreactivity

## QVQLVESGGGLVQAGGSLRLSCAASGSTFGYYAMGWYRQAPGKERELVASITWGGGSTYYADSVKGRFTISRDNAKNTVYLQMNSLKPEDTAVYYCAATILGGTWGYGSYTYYYWGHGTQVTVSS
  polyreactivity (PSR sort gate): low polyreactivity

## QVQLVESGGGLVQAGGSLRLSCAASGSTFGYYAMGWYRQAPGKERELVATINWSGGSTYYADSEKGRFTISRDNAKNTVYLQMISLKPEDTAVYYCAADPYLQYYWAYDYWGQGTQVTVSS
  polyreactivity (PSR sort gate): low polyreactivity

## QVQLVESGGGLVQAGGSLRLSCAASGSTFGYYAMGWYRQAPGKERELVATITIGGSTHYADSVKGRFTISRDNAKNTVYLQMNSLKPEDTAVYYCAKRYYTNRHSRAFGFWGQGSQVTVSS
  polyreactivity (PSR sort gate): high polyreactivity

## QVQLVESGGGLVQAGGSLRLSCAASGSTFGYYAMGWYRQAPGKERELVATITSSGDNTYADSVKGRFTISRDNAKNTVYLQMNSLKPEDTAVYYCNARYRKSSRPVYEPYERYYWGQGTQVTVSS
  polyreactivity (PSR sort gate): high polyreactivity

## QVQLVESGGGLVQAGGSLRLSCAASGSTFGYYAMGWYRQAPGNEREFVAAITYGDGNTYYADSVKGRFTISRDNAKNTVYLQMNRLKPEDTAVYYCAKYYWAPTGAHGGYGYWGQGTQVTVSS
  polyreactivity (PSR sort gate): low polyreactivity

## QVQLVESGGGLVQAGGSLRLSCAASGSTFGYYGMGWYRQAPGKERELVAAISTGGRTNYADSVKGRFTISRDNAKNTVYLQMNSLKPEDTAVYYCAADFLSAAYRPSWYRFDYWGQGTQVTVSS
  polyreactivity (PSR sort gate): low polyreactivity

## QVQLVESGGGLVQAGGSLRLSCAASGSTFGYYGMGWYRQAPGKERELVAAISTGGRTNYADSVKGRFTISRDNAKNTVYLQMNSLKPEDTAVYYCAADFLSPAYRPSWYRFDYWGQGTQVTVSS
  polyreactivity (PSR sort gate): low polyreactivity

## QVQLVESGGGLVQAGGSLRLSCAASGSTFGYYTMGWYRQAPGKERELVAAITGGGTTYYADSVKGRFTISRDNAKNTVYLQMNSLKPEDYAVYYCAAQARYYWGTTYEYWGQGTQVTVSS
  polyreactivity (PSR sort gate): high polyreactivity

## QVQLVESGGGLVQAGGSLRLSCAASGSTFGYYTMGWYRQAPGKERELVAAITKSGGGTYYADSVKGRFTISRDNAKNTVYLQMNSLKPEDTAVYYCNALYDYYDPYGSWGQGTQVTVSS
  polyreactivity (PSR sort gate): high polyreactivity

## QVQLVESGGGLVQAGGSLRLSCAASGSTFHAYAMGWYRQAPGKEREMVAAISWRGGSTYYADSVKGRFTISRDNAKNTVYLQMNSLKPEDTAVYYCAASVQGLFGTSGLEGVDYWGQGTQVTVSS
  polyreactivity (PSR sort gate): high polyreactivity

## QVQLVESGGGLVQAGGSLRLSCAASGSTFHDKAMGWYRQAPGKERELVAAITKTAGSTYYADSVKGRFTISRDNAKNTVYLQMNSMKPEDTAVYYCNAKTYHSRRKVLRFDYWGQGTQVTVSS
  polyreactivity (PSR sort gate): low polyreactivity

## QVQLVESGGGLVQAGGSLRLSCAASGSTFHHYAMGWYRQAPGKERELVAAITTSGGRTYYADSVKGRFTISRDNAKNTVYLQMNSLKPEDTAVYYCAADRFFYRGGYYYWGQGTQVTVSS
  polyreactivity (PSR sort gate): high polyreactivity

## QVQLVESGGGLVQAGGSLRLSCAASGSTFHLYTMGWSRQAPGKERELVAGISRRGGTTYYADSVKGRFTISRDNAKNTVYLQMNSLKPEDTAVYYCAAVYRTYGIGPNNYWGQGTQVTVSS
  polyreactivity (PSR sort gate): high polyreactivity

## QVQLVESGGGLVQAGGSLRLSCAASGSTFHNYAMGCYRQAPGKERELVAGISVRGGGTYYADSVKGRFTISRDNAKNTVYVQMNSLKPEDTAVYYCNARSWYYVWRKGYRHGDYWGQGTQVTVSS
  polyreactivity (PSR sort gate): high polyreactivity

## QVQLVESGGGLVQAGGSLRLSCAASGSTFHPNAMGWYIQAPGKERQLVAAISRGGSTNYADSVKGRFTISRDNAKNTVYLQMNSLKPEDTAVYYCAKDFFGISSDPVDMDYWGQGTQVTVSS
  polyreactivity (PSR sort gate): low polyreactivity

## QVQLVESGGGLVQAGGSLRLSCAASGSTFHPNTMGWYRQAPGKERELGARISSGGSTNYADSVKGRFTISRDNAKNTVYLQMNSLKPEDTAVYYCAARTAFSGARGRGGYWGQGTQVTVSS
  polyreactivity (PSR sort gate): high polyreactivity

## QVQLVESGGGLVQAGGSLRLSCAASGSTFHSYAMGWYRQAPGKERELVAAISSSGGSTYYADSVKGRFTISRDNAKNTVYLQMNSLKPEDTAVYYCAADWRTKGYDSLGQGTQVTVSS
  polyreactivity (PSR sort gate): high polyreactivity

## QVQLVESGGGLVQAGGSLRLSCAASGSTFHTFAMGWYRPAPGKERELVAAINRRTGGTYYADSVKGRFTISRDNAKNTVDLQMNSLKPEDTAVFYCATDWFSYRGGIFDSWGQGTQVTVSS
  polyreactivity (PSR sort gate): low polyreactivity

## QVQLVESGGGLVQAGGSLRLSCAASGSTFHTYAMGWYRQAPGKERELVASISYGVTTYYADSVKGRFTISRDNAKNTVYLQMNSLKPEDTAVYYCAREGYKWVYLSYGYWGQGTQVTVSS
  polyreactivity (PSR sort gate): low polyreactivity

## QVQLVESGGGLVQAGGSLRLSCAASGSTFHWYTMGWYRPAPGKESELVAAITSGTSTYYADSVKGRFTISRDNSKITVYLQMNSLKPEDTAVYYCNTEGVWSVYGLYDYWGQGTQVTVSS
  polyreactivity (PSR sort gate): low polyreactivity

## QVQLVESGGGLVQAGGSLRLSCAASGSTFHYYAMGWYRQAPGKERELVAAINSGARTYYADSVKGRFTISRDNAKNTVYLQMNSLKPEDTAVYYCNKAFQWSGGQVSYDFWGQGTQVTVSS
  polyreactivity (PSR sort gate): low polyreactivity

## QVQLVESGGGLVQAGGSLRLSCAASGSTFHYYAMGWYRQAPGKERELVAAISYRGSTYYADSVKGRFTISRDNAKNTVYLQMNSLKPEDTAVYYCAVVSSRGRRIYGYWGQGTQVTVSS
  polyreactivity (PSR sort gate): high polyreactivity

## QVQLVESGGGLVQAGGSLRLSCAASGSTFHYYAMGWYRQAPGKERELVAAISYSGGRTYYADSVKGRFTISRDNAKNTVYLQMNSLKPEDTAVYYCAARRSRTGRDESWGQGTQVTVSS
  polyreactivity (PSR sort gate): high polyreactivity

## QVQLVESGGGLVQAGGSLRLSCAASGSTFIANAMGWYRKAPGKERELVAAISQSGDSTYYADSVKGRFTISRENAKNTVYLQMNSMKPEDTAVYYCAAEDVDGYEYWGQGTQVTVSS
  polyreactivity (PSR sort gate): high polyreactivity
